Data: the supplement of paper PMC10126150
± gives the standard deviation of the averaged measurements.

What follows are sequences tested on ATP (assay: switch fluorescence ratio, 500 uM ATP over buffer (Cy3 cluster intensity, sum of 5 cycles each) (fold (ratio)); higher = stronger signal-on switching upon ATP binding; sequences stand for … in TCGTCGGCAGCGTCAGATGTGTATAAGAGACAGTTTTTTTTTTTTTTTTTTTTTTTTT…TC). Conditions: aptamer strand: ATP DNA aptamer (quencher-CACCTGGGGGAGTATTGCGGAGGAAGG + anchor), 100 nM annealed; ATP concentration: 500 uM.
Outline: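 Switching-strand clusters labelled with Cy3 on a modified Illumina MiSeq flow-cell were annealed to 100 nM quencher-labelled ATP aptamer, imaged in selection buffer, and re-imaged after 15 min with 500 uM ATP at 22 °C. This was done over five cycles with NaOH stripping and re-annealing in between. The fluorescence ratio is summed target-cycle over summed buffer-cycle Cy3 intensity per cluster, averaged per switch-domain sequence, excluding clusters outside 100-1000 RFU.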
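Also: ATP exposure 15 min at 22 °C before imaging.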

TGCAACGTAT and CGGTATATGG are within error of each other in switch fluorescence ratio: 1.13 ± 0.19 for the first, 0.962 ± 0.013 for the second.

CGCTTAGGCA and ATGAGAATGC are the same in switch fluorescence ratio: 1.02 ± 0.053 for the first, 1.024 ± 0.0063 for the second.

TTTAAAAGA and CGAGATAAGG are the same in switch fluorescence ratio: 1 ± 0.02 for the first, 1 ± 0.014 for the second.

GGATTCTGTG and TGAGACATGC are within error of each other in switch fluorescence ratio: 0.969 ± 0.018 for the first, 0.994 ± 0.038 for the second.

GCTAATGTTT and CATGGGAAAT are within error of each other in switch fluorescence ratio: 0.998 ± 0.031 for the first, 1.008 ± 0.005 for the second.

Going from TTCCTAAATT to GGATGATCGT, the switch fluorescence ratio falls from 0.9979 ± 0.0034 to 0.954 ± 0.029.

TTTGGCTTAG and CTAATATCAC are within error of each other in switch fluorescence ratio: 0.991 ± 0.029 for the first, 1.02 ± 0.012 for the second.

TCACAAATAA and TTTCATGGTA are within error of each other in switch fluorescence ratio: 0.993 ± 0.043 for the first, 0.998 ± 0.0099 for the second.

Going from CTCTCAAGGT to CAGTAAGAGC, the switch fluorescence ratio falls from 1.05 ± 0.018 to 0.935 ± 0.0095.

TAATGGTCTT and ATCCAGGGGT are within error of each other in switch fluorescence ratio: 1.02 ± 0.14 for the first, 1.06 ± 0.022 for the second.

GTTGTAAGGT and CGGGTCGGGA are within error of each other in switch fluorescence ratio: 0.986 ± 0.034 for the first, 0.995 ± 0.041 for the second.

GTGTGGGGAT and GGCGGGTTGG are within error of each other in switch fluorescence ratio: 1 ± 0.044 for the first, 0.998 ± 0.048 for the second.

Going from CTCCAATAGT to GCCGTTGGAA, the switch fluorescence ratio falls from 1.79 ± 0.044 to 1.01 ± 0.024.

GAATTATCTA and TTTTTTAGT are within error of each other in switch fluorescence ratio: 0.996 ± 0.022 for the first, 0.992 ± 0.027 for the second.

TGAGGGGGGG and ACAATTGGTC are within error of each other in switch fluorescence ratio: 0.999 ± 0.034 for the first, 1.02 ± 0.034 for the second.

AGAATTACTT and TCCGGGGGAG are the same in switch fluorescence ratio: 1.001 ± 0.0092 for the first, 1 ± 0.023 for the second.

GGGTAAGAGT and TTTGTTCACG are within error of each other in switch fluorescence ratio: 1 ± 0.043 for the first, 0.991 ± 0.01 for the second.

TTCTAAGGAG and GACTACGGTT are within error of each other in switch fluorescence ratio: 1.017 ± 0.0022 for the first, 1.006 ± 0.0095 for the second.

ACAAGTGCGG and GACCCGCTTG are within error of each other in switch fluorescence ratio: 1.05 ± 0.024 for the first, 1.06 ± 0.013 for the second.

CATGTTTTTC and GGGGGTTAAG are within error of each other in switch fluorescence ratio: 0.982 ± 0.033 for the first, 0.988 ± 0.029 for the second.

GACGGTGCAT and CCAAAGGGAT are within error of each other in switch fluorescence ratio: 1.33 ± 0.084 for the first, 1.28 ± 0.38 for the second.

Compared with TTTGGTGTTG, ATGATCTTCC is higher in switch fluorescence ratio: 0.987 ± 0.022 for the first, 2.3 ± 0.091 for the second.

CGAGGGGA and CCTGAGACAC are within error of each other in switch fluorescence ratio: 1.018 ± 0.0082 for the first, 1.08 ± 0.052 for the second.

TGGTGATAGT and GTCACAGGCT are within error of each other in switch fluorescence ratio: 0.965 ± 0.035 for the first, 1.02 ± 0.026 for the second.

GACAGTCAAA and GGATTTGGGT are within error of each other in switch fluorescence ratio: 1.01 ± 0.04 for the first, 0.981 ± 0.017 for the second.

CCATTTGTGT and AGACTCCAAG are within error of each other in switch fluorescence ratio: 0.976 ± 0.023 for the first, 1 ± 0.059 for the second.

CGATAAAGGT and TTACAAGTTT are within error of each other in switch fluorescence ratio: 1.016 ± 0.0095 for the first, 1.14 ± 0.19 for the second.

First: AACCCGAGCC
Second: GGGGTTGGGA
The switch fluorescence ratio of the first is higher: 1.196 ± 0.011 for the first, 0.971 ± 0.025 for the second.

GGGGGAACGC and TAGGGCGGGG are within error of each other in switch fluorescence ratio: 0.998 ± 0.054 for the first, 0.988 ± 0.025 for the second.

CCGAATAGTT and TGCAATATAT are within error of each other in switch fluorescence ratio: 1.18 ± 0.14 for the first, 1.14 ± 0.01 for the second.

Compared with CATTAGTGGG, GTTTGGATAT is lower in switch fluorescence ratio: 0.988 ± 0.011 for the first, 0.963 ± 0.01 for the second.

TTTCAAATGT and GGGGCGTACG are within error of each other in switch fluorescence ratio: 1.11 ± 0.17 for the first, 1.05 ± 0.2 for the second.

TGGGGTAAGT and AGGCGGTGTG are within error of each other in switch fluorescence ratio: 0.993 ± 0.032 for the first, 0.973 ± 0.036 for the second.

GTTTGCTGGG and ATGAAAGTCT are within error of each other in switch fluorescence ratio: 0.983 ± 0.035 for the first, 0.976 ± 0.042 for the second.

ATCGGGAGGG and GCATGGTTAT are within error of each other in switch fluorescence ratio: 1 ± 0.013 for the first, 0.993 ± 0.036 for the second.

Compared with ATGTTTTTAC, CCGTGGTTTT is higher in switch fluorescence ratio: 0.949 ± 0.029 for the first, 0.99133 ± 5.8e-05 for the second.

CTTGTAAAAT and CTTTAGCCGG are within error of each other in switch fluorescence ratio: 0.993 ± 0.014 for the first, 1.02 ± 0.049 for the second.

First: TGGGGGCGTG
Second: CAGACGTTTT
The switch fluorescence ratio of the first is lower: 0.9502 ± 0.00056 for the first, 0.9917 ± 0.0094 for the second.

Going from TTAATTTGGT to CAGCCGCTGT, the switch fluorescence ratio rises from 0.971 ± 0.03 to 1.79 ± 0.026.

ACGACTGCGT and GCTTTATTGC are within error of each other in switch fluorescence ratio: 1.0213 ± 0.00018 for the first, 1.01 ± 0.014 for the second.

GGGAGGGGGC and TTTTGCGAGG are within error of each other in switch fluorescence ratio: 1.01 ± 0.075 for the first, 1.03 ± 0.014 for the second.

Going from ATGGGGGGTA to TGGAGTAACT, the switch fluorescence ratio rises from 0.986 ± 0.044 to 1.0876 ± 0.00087.

TTGGTGTGGC and TGAGCTGGTA are within error of each other in switch fluorescence ratio: 0.9967 ± 0.0092 for the first, 0.981 ± 0.034 for the second.

TTGGAGAAAT and ATGAGGTCTC are within error of each other in switch fluorescence ratio: 1.05 ± 0.025 for the first, 0.98 ± 0.046 for the second.

Compared with TGCTGGGTTT, CATGGGGTGG is lower in switch fluorescence ratio: 0.998 ± 0.011 for the first, 0.9671 ± 0.0014 for the second.

AGGGAAAGTC and TGGGAGTTCA are within error of each other in switch fluorescence ratio: 0.9854 ± 0.0058 for the first, 0.971 ± 0.01 for the second.

Going from CGCATAAATA to GCGCATGGTA, the switch fluorescence ratio falls from 1.16 ± 0.034 to 1.02 ± 0.026.

Compared with GGCTTGGCCC, TAAAGAGGTG is higher in switch fluorescence ratio: 1.015 ± 0.0063 for the first, 1.11 ± 0.053 for the second.

TTGGATACGT and CATGGAATAG are within error of each other in switch fluorescence ratio: 1.03 ± 0.091 for the first, 1.07 ± 0.011 for the second.

GGAGGGAGTG and TTTCATTCGG are within error of each other in switch fluorescence ratio: 0.98 ± 0.025 for the first, 1.06 ± 0.13 for the second.

ATTTTATTCT and AATATTTGGT are within error of each other in switch fluorescence ratio: 1.003 ± 0.0076 for the first, 0.974 ± 0.019 for the second.

Compared with TTCCTTGGGA, CCGATTGGCA is higher in switch fluorescence ratio: 0.984 ± 0.014 for the first, 1.55 ± 0.14 for the second.

AAAAGTGTAT and AATTTGATAG are within error of each other in switch fluorescence ratio: 0.98 ± 0.03 for the first, 0.988 ± 0.018 for the second.

ATTCTGCGGA and TGGATAGGTA are within error of each other in switch fluorescence ratio: 1.01 ± 0.019 for the first, 0.995 ± 0.023 for the second.

GGGCCAGTGC and GGGATTGAGC are the same in switch fluorescence ratio: 1.03 ± 0.043 for the first, 1.03 ± 0.041 for the second.

ATGGGGGGGT and GAAGTTTTTG are within error of each other in switch fluorescence ratio: 0.999 ± 0.025 for the first, 0.993 ± 0.017 for the second.

TGAAACATTT and TTAAGTAGGA are within error of each other in switch fluorescence ratio: 0.975 ± 0.036 for the first, 1 ± 0.017 for the second.

TTCGTTTATC and ACCCTGTGTA are within error of each other in switch fluorescence ratio: 1.07 ± 0.093 for the first, 1 ± 0.021 for the second.

AAGTTGCGGG and GATGTAATGT are within error of each other in switch fluorescence ratio: 0.964 ± 0.078 for the first, 1.0081 ± 0.00064 for the second.

TACGGTAGGA and TGGGGTGAAC are within error of each other in switch fluorescence ratio: 0.9836 ± 0.006 for the first, 1 ± 0.025 for the second.

CGGTTGGGGG and TAAAGCAGGC are within error of each other in switch fluorescence ratio: 0.962 ± 0.033 for the first, 1.11 ± 0.14 for the second.

TAGGTTGCTT and ATATTGGTAC are within error of each other in switch fluorescence ratio: 1.02 ± 0.021 for the first, 1.034 ± 0.0013 for the second.

TTGGGGGG and TTGGTTTAAT are within error of each other in switch fluorescence ratio: 1.004 ± 0.0069 for the first, 1.01 ± 0.034 for the second.

TTGAAGTTTT and TTCTCCGGTT are within error of each other in switch fluorescence ratio: 0.991 ± 0.039 for the first, 1.31 ± 0.29 for the second.

ATTTTATGGG and GCGGTTAGCT are within error of each other in switch fluorescence ratio: 0.999 ± 0.019 for the first, 1.04 ± 0.066 for the second.

CCCCTGTTTT and TTCTAATTTT are within error of each other in switch fluorescence ratio: 1.01 ± 0.022 for the first, 0.995 ± 0.027 for the second.

First: AAGTTTATGG
Second: TGTGTTCCTC
The switch fluorescence ratio of the first is lower: 0.9798 ± 0.0057 for the first, 1.08 ± 0.013 for the second.

AACTGGGGGC and GGGGGCACGG are within error of each other in switch fluorescence ratio: 1 ± 0.031 for the first, 1.01 ± 0.012 for the second.

First: TTAGCATCTA
Second: CGATATCAAT
The switch fluorescence ratio of the first is lower: 0.999 ± 0.018 for the first, 1.061 ± 0.0062 for the second.

TCAAGCCGAG and ACACTATTAT are within error of each other in switch fluorescence ratio: 1.08 ± 0.062 for the first, 1.07 ± 0.033 for the second.

First: ACGATCATTT
Second: TTTAGAGGGG
The switch fluorescence ratio of the first is higher: 1.048 ± 0.0024 for the first, 1.02 ± 0.024 for the second.

Going from ATTCCGATTG to AAGGGCAGAA, the switch fluorescence ratio falls from 1.07 ± 0.031 to 0.973 ± 0.03.

GCATTAGGGT and TGGGGCGTTG are within error of each other in switch fluorescence ratio: 1.02 ± 0.014 for the first, 1.01 ± 0.019 for the second.

AAAGACACTC and AGAAAATTAG are within error of each other in switch fluorescence ratio: 1.04 ± 0.071 for the first, 1.02 ± 0.039 for the second.

First: TCAGGGTGTG
Second: AGCGCCTCAG
The switch fluorescence ratio of the first is higher: 1.019 ± 0.0067 for the first, 1.003 ± 0.0081 for the second.

GTTACTTTGT and TTTTTCGGGG are within error of each other in switch fluorescence ratio: 0.992 ± 0.0075 for the first, 1.02 ± 0.032 for the second.

GTTGGTGGGT and GTAATAAGGG are within error of each other in switch fluorescence ratio: 0.98 ± 0.032 for the first, 1.04 ± 0.041 for the second.

First: GATTCCGTTG
Second: GCTTTCATTT
The switch fluorescence ratio of the first is higher: 1.04 ± 0.016 for the first, 1.013 ± 0.0049 for the second.

AGGGAATGAT was tested, and the switch fluorescence ratio was 1.01 ± 0.015.
